The source of these data is the Immune Epitope Database (IEDB).

One test addresses HLA-B*18:01. Kind of test: IEDB peptide-MHC binding, purified MHC/competitive/fluorescence; filed as Kd, often an IC50 or EC50 that approximates it; ≥ and ≤ were set here for values at or beyond the usual limits of such assays.
Test [1] has as its target HLA-B*46:01. The test is described as above.
The next test addresses HLA-B*51:01. The test is described as above.
Another test has as its target HLA-A*68:02. The description is as above.
In a further test the target is HLA-B*27:03. Described as above.
A further test deals with HLA-A*02:16. Described as above.
Test [2] concerns the target HLA-A*26:01. The test is described as above.
Test [3] has as its target HLA-B*15:01. The test is described as above.
The target of another test is HLA-B*39:01. Described as above.
For a further test, the target named is HLA-B*15:17. The test is described as above. The note with it: source organism: Entamoeba dispar SAW760.
The next test deals with HLA-A*24:03. The description is as above.
The target in a further test is HLA-A*02:11. Described as above.
In another test the target is HLA-A*02:12. The description is as above.
In a further test the target is HLA-A*02:03. The description is as above.
Test [4] addresses HLA-A*03:01. Described as above. The note with it: source organism: Entamoeba dispar SAW760.
Test [5] deals with HLA-A*02:01. Described as above.
The target in another test is HLA-A*29:02. Described as above. The note with it: source organism: Entamoeba dispar SAW760.
For a further test, the target named is HLA-A*02:19. The description is as above.
The target of test [6] is HLA-A*69:01. The description is as above.
In the next test the target is HLA-B*57:01. The test is described as above.
For test [7], the target named is HLA-A*31:01. The test is described as above. Conditions: source organism: Coxiella burnetii RSA 331.
Test [8] has as its target HLA-B*46:01. The test can be described thus: IEDB peptide-MHC binding, purified MHC/direct/fluorescence; filed as Kd, often an IC50 or EC50 that approximates it; ≥ and ≤ were set here for values at or beyond the usual limits of such assays. Conditions: source organism: Rickettsia prowazekii.
The target in the next test is HLA-B*07:02. The test is described as above. Conditions: source organism: Rickettsia prowazekii.
The target in the next test is HLA-B*44:02. The description is as above. The note with it: source organism: Rickettsia prowazekii.
The target in the next test is HLA-B*15:02. The description is as above. Conditions: source organism: Rickettsia prowazekii.
The target in test [9] is HLA-A*26:01. The test is described as above. The note with it: source organism: Rickettsia prowazekii.
The target of test [10] is HLA-A*31:01. The test is described as above. The note with it: source organism: Rickettsia prowazekii.
For test [11], the target named is HLA-B*15:01. The description is as above. Conditions: source organism: Rickettsia prowazekii.
The next test deals with HLA-B*58:01. The description is as above. The note with it: source organism: Rickettsia prowazekii.
The target in test [12] is HLA-A*03:01. The test is described as above. Conditions: source organism: Rickettsia prowazekii.
Test [13] deals with HLA-A*02:01. The test is described as above. The note with it: source organism: Rickettsia prowazekii.
For another test, the target named is HLA-B*35:01. The description is as above. Conditions: source organism: Rickettsia prowazekii.
A further test concerns the target HLA-B*40:01. The description is as above. Conditions: source organism: Rickettsia prowazekii.
In another test the target is HLA-A*11:01. Described as above. The note with it: source organism: Rickettsia prowazekii.
For another test, the target named is HLA-A*01:01. The description is as above. The note with it: source organism: Rickettsia prowazekii.
The target in test [14] is HLA-A*69:01. The test is described as above. The note with it: source organism: Rickettsia prowazekii.
Another test deals with HLA-B*08:01. The test is described as above. Conditions: source organism: Rickettsia prowazekii.
For a further test, the target named is HLA-B*27:05. Described as above. Conditions: source organism: Rickettsia prowazekii.
[15] abbreviates: source organism: Entamoeba dispar SAW760.
Setting [16] is: source organism: Coxiella burnetii RSA 331.
[17] abbreviates: source organism: Deerpox virus W-848-83.

By Kd is commonly meant the constant that tells how readily two partners part at equilibrium. A high value points to a looser complex. Consider FELLHFISS, for which the Kd in the test with HLA-B*18:01 (setting [15]) was 0.564 µM; with HLA-B*46:01 [1] (setting [15]) it was no less than 20 µM; with HLA-B*51:01 (setting [15]) it was no less than 20 µM; with HLA-A*68:02 (setting [15]), no less than 20 µM; with HLA-B*27:03 (setting [15]) it was no less than 20 µM; with HLA-A*02:16 (setting [15]) it was no less than 20 µM. The Kd with HLA-A*26:01 [2] (setting [15]), in the test with HLA-B*15:01 [3] (setting [15]), with HLA-B*39:01 (setting [15]), with HLA-B*15:17, in the test with HLA-A*24:03 (setting [15]) and with HLA-A*02:11 (setting [15]) was no less than 20 µM in each case. The Kd with HLA-A*02:12 (setting [15]), with HLA-A*02:03 (setting [15]), with HLA-A*03:01 [4], with HLA-A*02:01 [5] (setting [15]), with HLA-A*29:02 and in the test with HLA-A*02:19 (setting [15]) was no less than 20 µM throughout. In addition, the Kd in the test with HLA-A*69:01 [6] (setting [15]) and with HLA-B*57:01 (setting [15]) was no less than 20 µM in each case.

Regarding HMNKLPLAK, the Kd with HLA-B*18:01 (setting [16]), with HLA-B*46:01 [1] (setting [16]), in the test with HLA-B*51:01 (setting [16]), with HLA-A*68:02 (setting [16]), with HLA-B*27:03 (setting [16]) and with HLA-A*02:16 (setting [16]) was no less than 20 µM throughout. In addition, the equilibrium dissociation constant (Kd) was no less than 20 µM with HLA-A*26:01 [2] (setting [16]); 0.223 µM in the test with HLA-A*31:01 [7]; no less than 20 µM with HLA-B*15:01 [3] (setting [16]); no less than 20 µM with HLA-B*39:01 (setting [16]); no less than 20 µM with HLA-A*24:03 (setting [16]); no less than 20 µM with HLA-A*02:11 (setting [16]). Also, the Kd in the test with HLA-A*02:12 (setting [16]), with HLA-A*02:03 (setting [16]), in the test with HLA-A*02:01 [5] (setting [16]), in the test with HLA-A*02:19 (setting [16]), with HLA-A*69:01 [6] (setting [16]) and with HLA-B*57:01 (setting [16]) was no less than 20 µM each time.

On to YGGKKAVTY, for which the equilibrium dissociation constant (Kd) in the test with HLA-B*46:01 [8], with HLA-B*07:02, with HLA-B*44:02, in the test with HLA-B*15:02, with HLA-A*26:01 [9] and with HLA-A*31:01 [10] was no less than 20 µM in each case. Further, the Kd is 1.4 µM with HLA-B*15:01 [11]; no less than 20 µM with HLA-B*58:01; no less than 20 µM with HLA-A*03:01 [12]; no less than 20 µM in the test with HLA-A*02:01 [13]; 0.249 µM with HLA-B*35:01; no less than 20 µM with HLA-B*40:01. Further, the Kd in the test with HLA-A*11:01, with HLA-A*01:01, with HLA-A*69:01 [14], in the test with HLA-B*08:01 and with HLA-B*27:05 was no less than 20 µM throughout.

On to YVAGITLTH, for which the Kd in the test with HLA-B*18:01 (setting [17]), with HLA-B*51:01 (setting [17]), in the test with HLA-B*27:03 (setting [17]), with HLA-A*02:16 (setting [17]), with HLA-B*39:01 (setting [17]) and with HLA-A*02:11 (setting [17]) was no less than 20 µM throughout. The Kd in the test with HLA-A*02:12 (setting [17]), with HLA-A*02:03 (setting [17]), with HLA-A*02:01 [5] (setting [17]), with HLA-A*02:19 (setting [17]), in the test with HLA-A*69:01 [6] (setting [17]) and with HLA-B*57:01 (setting [17]) was no less than 20 µM each time.
